For 1 protein, Km and kcat results are on record in PMC4973843, “Dimeric chlorite dismutase from the nitrogen‐fixing cyanobacterium C yanothece sp. PCC7425” (Molecular Microbiology, 2015).

Substrate in the data set: [O-][Cl+]O
As to the kind of experiment: Clark-type oxygen electrode, O2 release. The format is biochemical, Cyanothece sp. PCC 7425. The settings on record: 50 mM citrate phosphate pH 5.0, 30°C.

B1: CCld (chlorite dismutase from Cyanothece sp. PCC7425) (Cyanothece sp. PCC 7425) (protein)
chain: NNRYSFIGGRTGQWQVVKIRNVLGPGLQLVEKVNILNGAVAEIPLDSAWRLQGFASNIRYAIRTELEALQAVQPMLNRAEAILAVLIPIKKSAQWWEMAQDERRDIFERESHHTAVGLEYLPGVARRLLHCRDLGEEFDFLTWFEFAPEHSSAFNELLLRMRASKEWEYVEREVEVWLKRL
notes: heme b
One may read the Km as the substrate concentration at which the rate is half of its maximum. The kcat is the maximal rate divided by the concentration of active sites. As to B1, the Michaelis-Menten constant (Km) came out at 162 ± 10.0 µM and the catalytic constant (kcat) amounted to 1144 ± 23.8 s⁻¹.
